Assay results: patent publication US8367389B2, “Methods, compositions and devices utilizing structurally stable cyanuric acid hydrolase” (Regents of the University of Minnesota, priority 2009, dated 2013)
Like-named read-outs stand apart in the source and are kept apart here.

Key:
[1] = biological target: T1, cyanuric acid hydrolase from M. thermoacetica (Moorella thermoacetica, UniProt Q2RGM7); test: Metal chelator effects; type: biochemical, Moorella thermoacetica ATCC 39073; conditions: for effect of chelator on activity: 5 mM chelator, 24 h incubation, room temperature
T1 construct: ORF Moth—2120 from M. thermoacetica ATCC 39073 was PCR amplified; His-tag (from pET28b+, cloned NdeI/HindIII) (N); made in house; host or cells: E. coli BRL21(DE3) pLysS, vector pET28b+::Moth_2120
T1 sequence (Q2RGM7 1-367): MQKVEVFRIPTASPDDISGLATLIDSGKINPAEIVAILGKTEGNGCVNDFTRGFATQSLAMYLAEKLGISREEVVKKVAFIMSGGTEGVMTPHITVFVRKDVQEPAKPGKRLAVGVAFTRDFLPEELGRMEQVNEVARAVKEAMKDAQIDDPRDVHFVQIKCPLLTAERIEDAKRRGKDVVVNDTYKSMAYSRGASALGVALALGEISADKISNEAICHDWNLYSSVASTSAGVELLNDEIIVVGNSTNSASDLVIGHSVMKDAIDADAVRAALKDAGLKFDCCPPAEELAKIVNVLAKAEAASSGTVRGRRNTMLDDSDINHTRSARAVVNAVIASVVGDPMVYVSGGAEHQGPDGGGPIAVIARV
Procedure: Metal chelator effects. Purified protein was incubated at room temperature with 5 mM 1,10-phenanthroline, 8-hydroxyquinoline-5-sulfonic acid, or ethylenediaminetetraacetic acid (EDTA) for 24 hours. PD-10 desalting columns (GE Healthcare) were used, as per the manufacturer's instructions, to remove the chelator from the enzyme. Enzymatic activity was measured with cyanuric acid as substrate, as described above.

[2] = biological target: T1, cyanuric acid hydrolase from M. thermoacetica; type: biochemical, Moorella thermoacetica ATCC 39073; conditions: for activity as % of native activity: at higher concentrations (1.0 and 2.0 mM); for effect of metal on native enzyme activity: 0.2 mM
[3] = biological target: T2, Moorella cyanuric acid hydrolase (Moorella thermoacetica, UniProt Q2RGM7); test: Substrate specificity analysis; type: biochemical, Moorella thermoacetica ATCC 39073
T2 construct: ORF Moth—2120 from M. thermoacetica ATCC 39073 was PCR amplified; His-tag (from pET28b+, cloned NdeI/HindIII) (N); made in house; host or cells: E. coli BRL21(DE3) pLysS, vector pET28b+::Moth_2120
T2 sequence (Q2RGM7 1-367): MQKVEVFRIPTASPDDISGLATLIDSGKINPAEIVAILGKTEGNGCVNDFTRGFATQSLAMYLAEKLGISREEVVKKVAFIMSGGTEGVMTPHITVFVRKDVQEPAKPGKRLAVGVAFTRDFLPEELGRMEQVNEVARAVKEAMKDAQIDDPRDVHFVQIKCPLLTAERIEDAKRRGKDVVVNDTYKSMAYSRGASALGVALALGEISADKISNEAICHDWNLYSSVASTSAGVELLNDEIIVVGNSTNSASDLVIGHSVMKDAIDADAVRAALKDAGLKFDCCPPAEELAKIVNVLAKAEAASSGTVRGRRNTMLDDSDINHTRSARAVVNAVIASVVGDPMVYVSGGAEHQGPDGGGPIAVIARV
Procedure: (§1) Enzyme assay and kinetic constant determinations. Enzyme activity was monitored on a Beckman DU 640 spectrophotometer (Beckman Coulter, Fullerton, Calif.). Cyanuric acid and barbituric acid concentrations were measured at 214 nm (extinction coefficient=9200 cm^−1M^−1) and 256 nm, respectively. Reactions were carried out in 0.5 ml 25 mM Tris-HCl buffer, pH 8.0 with 100 μM cyanuric acid or barbituric acid at 30° C. Reactions were initiated by the addition of the enzyme. Kinetic parameters were determined by obtaining rates at cyanuric acid concentrations ranging from 10 to 110 μM. The data was plotted using Lineweaver-Burke plots.
Substrate specificity analysis. Seventeen compounds structurally analogous to cyanuric acid were tested as substrates: 5-nitrobarbituric acid, 5-methylbarbituric acid, 2-methylamino-4,6dihydroxy-s-triazine, 1,3,5-trimethoxy-s-triazine, 2-(3-methoxy propylamino)-4,6-dihydroxy-s-triazine, triphenoxy-s-triazine, 2-secbutyl-4,6-dihydroxy-s-triazine, N-phenyl ammelide, 2-ethylamino-4,6-dihydroxy-s-triazine, triisopropoxy-s-triazine, trimethyl isocyanurate, 1,3-dimethyl isocyanurate, hexazinone, 4,6-dihydroxy-2-mecapto pyrimidine, 4,6-dihydroxy-5-nitro-pyrimidine, barbituric acid and methyl isocyanurate. The compounds (100 μM) were incubated with 50 μg of purified enzyme in 25 mM Tris-HCl buffer (pH 8.0) for 30 min. Changes in the UV spectra were recorded. In cases where changes in the spectra were detected, an appropriate wavelength with absorbance differences between the substrate and product was chosen for further kinetic study. For N-methylisocyanurate, absorbance was measured at 214 nm (extinction coefficient=9500 cm^−1M^−1).

[4] = biological target: T3, cyanuric acid hydrolase from M. thermoacetica ATCC 39073 (Moorella thermoacetica, UniProt Q2RGM7); test: Storage stability at 4° C. or −80° C. with or without additives; type: biochemical, Moorella thermoacetica ATCC 39073; conditions: for Activity, 0 week: pH 8.0, 0 week; for Activity, 2 week: pH 8.0, 2 week; for Activity, 4 week: pH 8.0, 4 week; for Activity, 6 week: pH 8.0, 6 week; for Activity, 8 week: pH 8.0, 8 week
T3 construct: ORF Moth—2120 from M. thermoacetica ATCC 39073 was PCR amplified; His-tag (from pET28b+, cloned NdeI/HindIII) (N); made in house; host or cells: E. coli BRL21(DE3) pLysS, vector pET28b+::Moth_2120
T3 sequence (Q2RGM7 1-367): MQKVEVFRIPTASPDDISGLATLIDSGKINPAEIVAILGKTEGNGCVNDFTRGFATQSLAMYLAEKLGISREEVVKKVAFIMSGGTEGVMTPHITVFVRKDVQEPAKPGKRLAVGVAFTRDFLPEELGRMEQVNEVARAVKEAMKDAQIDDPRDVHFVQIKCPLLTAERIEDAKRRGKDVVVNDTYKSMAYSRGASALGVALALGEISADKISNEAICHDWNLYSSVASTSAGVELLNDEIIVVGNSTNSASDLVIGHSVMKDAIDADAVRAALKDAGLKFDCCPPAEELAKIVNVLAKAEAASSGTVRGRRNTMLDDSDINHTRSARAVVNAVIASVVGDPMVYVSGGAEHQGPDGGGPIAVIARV
Procedure: (§2) Temperature stability of the enzyme. The thermal stability of the enzyme was determined by incubating the enzyme at various temperatures for […] prior to activity determinations. Studies of the stability during storage were performed at 4° C. or −80° C. with or without additives. The additives were 0.2 mM of dithiothreitol (DTT), 10% ethylene glycol, 25% glycerol and 25% polyethylene glycol (PEG) 4000. The activity was checked every two weeks, as described above.

[5] = Enzyme assay and kinetic constant determinations (cyanuric acid, 214 nm); type: biochemical
Procedure: as §1

[6] = cyanuric acid, published values, cited from earlier work
[7] = Temperature stability of the enzyme (30 min incubation prior to assay); type: biochemical
Procedure: FIG. 4. Stability of enzyme activity vs. temperature at pH 8.0 for purified cyanuric acid hydrolases from M. thermoacetica ATCC 39073 (●) compared with TrzD (▪) and AtzD (▴). Enzymes were maintained at the temperature indicated for 30 minutes prior to assay under standard conditions.
as §2

[8] = Effect of pH and temperature on enzymatic activity; type: biochemical
Procedure: Effect of pH and temperature on enzymatic activity. The optimum pH of the enzyme was determined at 30° C. with the following buffers: 25 mM […]; 25 mM Tris-HCl, pH 7-9; NaHCO3/Na2CO3, pH 9.5-10.5. The temperature optimum was determined by assaying the enzyme activity in 25 mM Tris-HCl, pH 8.0 at temperatures ranging from 25° C. to 70° C.

With `O=S(=O)(O)c1ccc(O)c2ncccc12` [8-hydroxyquinoline-5-sulfonic acid] the “effect of chelator on activity” value [1] was “failed to alter activity”.

For `[Ca+2].[Cl-].[Cl-]` [CaCl2], the “activity as % of native activity” value [2] was 121% and the Relative activity ([2]; metal salt 1.0 mM) was 121 ± 7.

`[Cl-].[Cl-].[Co+2]` [CoCl2] gave a Relative activity [2] of 92 ± 5.

For `[Cl][Cu][Cl]` [CuCl2], the “effect of metal on native enzyme activity” value (“effect of metal” below) [2] was “slight decreases in activity” and the Relative activity ([2]; metal salt 0.2 mM) was 83 ± 3.

With `O=C(O)CN(CCN(CC(=O)O)CC(=O)O)CC(=O)O` [EDTA, ethylenediaminetetraacetic acid] the “effect of chelator on activity” value [1] was “failed to alter activity”.

`[Cl][Fe]([Cl])[Cl]` [FeCl3] gave a Relative activity ([2]; metal salt 0.2 mM) of 105 ± 4.

For `[Cl-].[Cl-].[Mg+2]` [MgCl2], the “activity as % of native activity” value [2] was 119% and the Relative activity ([2]; metal salt 2.0 mM) was 119 ± 2.

Molecule `O=S(=O)([O-])[O-].[Mn+2]` [MnSO4] has a Relative activity ([2]; metal salt 0.2 mM) of 96 ± 3.

In the case of `[Cl][Ni][Cl]` [NiCl2], the “effect of metal” value [2] is reported as “slight decreases in activity” and the Relative activity ([2]; metal salt 0.2 mM) is reported as 79 ± 3.

For `O=S(=O)([O-])[O-].[Zn+2]` [ZnSO4], the “effect of metal” value [2] was “greatest inhibitory affect” and the Relative activity ([2]; metal salt 0.2 mM) was 51 ± 4.

In the case of `O=C1CC(=O)NC(=O)N1` [barbituric acid], the “detectable activity with compound as substrate” value ([3]; 100 μM, even with 50 μg of protein in a single assay) is reported as “did not show detectable activity”.

In the case of `Cn1c(=O)[nH]c(=O)[nH]c1=O` [methyl isocyanurate], the “rate relative to the preferred substrate cyanuric acid” value [3] is reported as “less than 1%” and the “rate of hydrolysis as substrate” value ([3]; 100 μM compound, 25 mM Tris-HCl pH 8.0) is reported as 0.13 µmol/min/mg.

In the case of `c1cnc2c(c1)ccc1cccnc12` [o-phenanthroline, 1,10-phenanthroline], the “effect of chelator on activity” value [1] is reported as “failed to alter activity”.

B1: cyanuric acid hydrolase from M. thermoacetica ATCC 39073: recombinant His-tagged cyanuric acid hydrolase encoded by ORF Moth—2120 of Moorella thermoacetica ATCC 39073, expressed in E. coli (protein, listed as Moorella thermoacetica)
chain: MQKVEVFRIPTASPDDISGLATLIDSGKINPAEIVAILGKTEGNGCVNDFTRGFATQSLAMYLAEKLGISREEVVKKVAFIMSGGTEGVMTPHITVFVRKDVQEPAKPGKRLAVGVAFTRDFLPEELGRMEQVNEVARAVKEAMKDAQIDDPRDVHFVQIKCPLLTAERIEDAKRRGKDVVVNDTYKSMAYSRGASALGVALALGEISADKISNEAICHDWNLYSSVASTSAGVELLNDEIIVVGNSTNSASDLVIGHSVMKDAIDADAVRAALKDAGLKFDCCPPAEELAKIVNVLAKAEAASSGTVRGRRNTMLDDSDINHTRSARAVVNAVIASVVGDPMVYVSGGAEHQGPDGGGPIAVIARV
modifications: His tag
notes: recombinant His-tagged cyanuric acid hydrolase encoded by ORF Moth—2120 of Moorella thermoacetica ATCC 39073, expressed in E. coli
For B1, the “loss of activity after 8 weeks” value ([4]; both storage temperatures (4° C. and −80° C.)) was “no loss of activity”, the “specific activity after 8 weeks as % of initial specific activity” value ([4]; stored at 4° C., 8 weeks) was 142% and the “Activity, 0 week” value ([4]; stored at 4° C.) was 11.9 ± 0.23 μmol per min per mg protein. The “Activity, 2 week” value ([4]; stored at 4° C.) was 12.5 ± 0.2 μmol per min per mg protein, the “Activity, 4 week” value ([4]; stored at 4° C.) was 15.9 ± 0.7 μmol per min per mg protein and the “Activity, 6 week” value ([4]; stored at 4° C.) was 16.6 ± 0.9 μmol per min per mg protein. The “Activity, 8 week” value ([4]; stored at 4° C.) was 16.9 ± 1^ μmol per min per mg protein, the “Activity, 0 week” value ([4]; stored at −80° C.) was 11.9 ± 0.2 μmol per min per mg protein and the “Activity, 2 week” value ([4]; stored at −80° C.) was 14.9 ± 0.1 μmol per min per mg protein. For the same molecule, the “Activity, 4 week” value ([4]; stored at −80° C.) was 14.3 ± 0.3 μmol per min per mg protein, the “Activity, 6 week” value ([4]; stored at −80° C.) was 12.3 ± 0.4 μmol per min per mg protein and the “Activity, 8 week” value ([4]; stored at −80° C.) was 11.7 ± 1.1 μmol per min per mg protein. For the same molecule, the “specific activity with cyanuric acid” value ([5]; 100 μM cyanuric acid, 25 mM Tris-HCl pH 8.0, 30° C.) was 15.7 µmol/min/mg, the Km ([5]; cyanuric acid 10 to 110 μM, Lineweaver-Burke, read-out: Km with cyanuric acid as substrate) was 110 µM and the kcat ([5]; cyanuric acid as substrate) was 10.6 s⁻¹. For the same molecule, the Known substrates [3] was “Cyanuric acid, N-”, the “kcat (literature)” value [6] was 10.6 s⁻¹ and the Km ([6]; read-out: Km (literature)) was 110 µM. The “Influence of chelators on activity” value [1] was “No affect EDTA, o-”, the “initial activity remaining after 30 min at 50° C.” value ([7]; 30 min, pH 8.0) was “stable” and the “initial activity remaining after 30 min at 50° C.” value ([7]; 30 min, pH 8.0, listed as Moorella enzyme) was 95%. For the same molecule, the “initial activity remaining after 30 min at 70° C.” value ([7]; 70° C., 30 min, pH 8.0) was 30%, the “Thermostability: temperature where activity above 50% after a 30 min incubation” value ([7]; pH 8.0, 30 min incubation) was 20-65 °C and the “Temp, optimum” value ([8]; 25 mM Tris-HCl pH 8.0, range 25-70° C.) was 70 °C. For the same molecule, the pH optimum ([8]; 30° C., pH 5.5 to 10.5) was 8.0, the “maximum activity at 70° C.” value ([8]; 70° C., pH 8.0) was 24 μmol per min per mg protein and the “Metal affects on activity” value [2] was “Cu(II), Zn(I), Ni(II)”.
